Results taken from patent US20220267441A1 (VOR BIOPHARMA, published 2022).
Substitutions are numbered along the chain they refer to. Like-named read-outs stand apart in the source and are kept apart here.

Tests used:
[1] = target: T1, cynomolgus CD45 on live cells (primary cynomolgus PBMCs) (cynomolgus monkey); assay: flow cytometry on PBMCs; cyno EC50 against human EC50
T1 construct: Endogenous CD45 on PBMCs; also called cyno CD45; Cyno PBMC
T1 chain: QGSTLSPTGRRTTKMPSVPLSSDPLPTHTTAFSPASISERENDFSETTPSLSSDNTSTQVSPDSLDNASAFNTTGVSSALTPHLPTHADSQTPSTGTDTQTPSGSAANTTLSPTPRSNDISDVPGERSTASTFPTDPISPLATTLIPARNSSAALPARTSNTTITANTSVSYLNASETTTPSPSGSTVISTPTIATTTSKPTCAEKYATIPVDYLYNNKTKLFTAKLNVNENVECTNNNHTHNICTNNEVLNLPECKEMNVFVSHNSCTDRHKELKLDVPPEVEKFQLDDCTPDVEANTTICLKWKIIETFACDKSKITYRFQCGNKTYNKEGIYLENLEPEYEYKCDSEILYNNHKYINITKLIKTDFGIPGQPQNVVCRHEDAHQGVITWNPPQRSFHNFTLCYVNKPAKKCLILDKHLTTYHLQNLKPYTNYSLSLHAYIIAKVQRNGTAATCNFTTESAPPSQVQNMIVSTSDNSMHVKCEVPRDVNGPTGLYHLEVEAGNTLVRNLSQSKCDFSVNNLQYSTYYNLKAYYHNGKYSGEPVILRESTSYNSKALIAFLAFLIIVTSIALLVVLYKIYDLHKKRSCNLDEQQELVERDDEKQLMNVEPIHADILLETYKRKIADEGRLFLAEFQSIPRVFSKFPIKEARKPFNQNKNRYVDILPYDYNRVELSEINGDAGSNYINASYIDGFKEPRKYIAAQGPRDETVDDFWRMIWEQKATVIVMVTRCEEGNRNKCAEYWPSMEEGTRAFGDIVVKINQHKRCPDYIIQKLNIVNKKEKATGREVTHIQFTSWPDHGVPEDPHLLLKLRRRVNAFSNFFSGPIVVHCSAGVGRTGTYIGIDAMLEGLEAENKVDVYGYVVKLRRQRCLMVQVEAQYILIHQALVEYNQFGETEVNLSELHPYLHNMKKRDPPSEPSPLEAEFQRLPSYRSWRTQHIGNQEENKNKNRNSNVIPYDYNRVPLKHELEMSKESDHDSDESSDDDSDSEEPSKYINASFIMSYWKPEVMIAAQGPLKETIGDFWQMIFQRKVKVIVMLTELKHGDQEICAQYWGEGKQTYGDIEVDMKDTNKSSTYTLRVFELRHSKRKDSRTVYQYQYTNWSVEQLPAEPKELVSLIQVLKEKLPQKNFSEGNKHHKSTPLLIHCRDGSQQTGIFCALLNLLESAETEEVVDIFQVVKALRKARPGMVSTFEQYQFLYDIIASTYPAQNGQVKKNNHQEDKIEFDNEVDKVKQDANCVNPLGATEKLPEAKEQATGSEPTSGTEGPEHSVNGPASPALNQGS

[2] = target: T1, cynomolgus CD45 on live cells (primary …); assay: as above
[3] = target: T2, human CD45 on live cells (REH-1 cells, primary human PBMCs) (human, UniProt P08575 26-1306); assay: flow cytometry on human PBMCs, overnight 37 C, AF488 anti-human IgG
T2 construct: Endogenous CD45
T2 sequence: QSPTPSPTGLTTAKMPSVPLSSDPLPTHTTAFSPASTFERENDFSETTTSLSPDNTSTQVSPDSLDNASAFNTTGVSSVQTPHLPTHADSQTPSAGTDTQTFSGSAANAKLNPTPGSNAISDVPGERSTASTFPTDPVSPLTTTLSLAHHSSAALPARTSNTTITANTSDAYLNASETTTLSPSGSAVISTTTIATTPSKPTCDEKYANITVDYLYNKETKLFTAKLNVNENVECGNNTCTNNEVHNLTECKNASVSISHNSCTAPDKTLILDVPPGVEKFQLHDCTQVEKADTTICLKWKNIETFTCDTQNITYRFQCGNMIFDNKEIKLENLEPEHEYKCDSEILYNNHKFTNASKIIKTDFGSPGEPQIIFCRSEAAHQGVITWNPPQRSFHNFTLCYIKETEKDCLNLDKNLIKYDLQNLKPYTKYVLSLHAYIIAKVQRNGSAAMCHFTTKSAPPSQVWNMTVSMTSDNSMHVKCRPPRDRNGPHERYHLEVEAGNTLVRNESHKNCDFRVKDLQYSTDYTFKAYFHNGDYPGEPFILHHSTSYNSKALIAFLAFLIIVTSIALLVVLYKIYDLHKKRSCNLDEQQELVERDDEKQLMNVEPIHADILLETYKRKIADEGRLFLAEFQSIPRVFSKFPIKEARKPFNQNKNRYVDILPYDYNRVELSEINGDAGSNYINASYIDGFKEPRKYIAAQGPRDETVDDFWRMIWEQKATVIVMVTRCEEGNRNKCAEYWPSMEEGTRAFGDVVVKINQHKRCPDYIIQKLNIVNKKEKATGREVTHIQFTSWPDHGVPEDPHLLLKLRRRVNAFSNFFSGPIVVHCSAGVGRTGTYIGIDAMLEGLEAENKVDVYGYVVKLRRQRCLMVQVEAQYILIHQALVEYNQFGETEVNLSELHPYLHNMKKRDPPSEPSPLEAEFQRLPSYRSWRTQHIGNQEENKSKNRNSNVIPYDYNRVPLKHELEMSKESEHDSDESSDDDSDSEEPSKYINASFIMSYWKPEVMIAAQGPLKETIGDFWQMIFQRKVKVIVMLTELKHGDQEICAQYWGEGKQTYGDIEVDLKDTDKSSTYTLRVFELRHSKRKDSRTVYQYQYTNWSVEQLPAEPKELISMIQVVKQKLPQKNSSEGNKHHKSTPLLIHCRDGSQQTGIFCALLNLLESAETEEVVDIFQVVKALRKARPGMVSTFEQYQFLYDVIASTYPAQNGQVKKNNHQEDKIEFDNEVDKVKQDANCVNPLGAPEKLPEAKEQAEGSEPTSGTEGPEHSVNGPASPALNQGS

[4] = target: T2, human CD45 on live cells (REH-1 cells, …); assay: as above; remark: listed apart in the source
[5] = target: T1, cynomolgus CD45 on live cells (primary …); assay: flow cytometry on cynomolgus PBMCs, overnight 37 C, AF488 anti-human IgG
[6] = target: T1, cynomolgus CD45 on live cells (primary …); assay: as above
[7] = target: T3, purified human CD45 ectodomain (human CD45RABC antigen) (human, UniProt P08575 26-577); assay: BLI (Octet Red96), antibody on anti-human Fc sensor, 100 nM human CD45 ectodomain, 1:1 fit
T3 construct: also called hCD45
T3 sequence: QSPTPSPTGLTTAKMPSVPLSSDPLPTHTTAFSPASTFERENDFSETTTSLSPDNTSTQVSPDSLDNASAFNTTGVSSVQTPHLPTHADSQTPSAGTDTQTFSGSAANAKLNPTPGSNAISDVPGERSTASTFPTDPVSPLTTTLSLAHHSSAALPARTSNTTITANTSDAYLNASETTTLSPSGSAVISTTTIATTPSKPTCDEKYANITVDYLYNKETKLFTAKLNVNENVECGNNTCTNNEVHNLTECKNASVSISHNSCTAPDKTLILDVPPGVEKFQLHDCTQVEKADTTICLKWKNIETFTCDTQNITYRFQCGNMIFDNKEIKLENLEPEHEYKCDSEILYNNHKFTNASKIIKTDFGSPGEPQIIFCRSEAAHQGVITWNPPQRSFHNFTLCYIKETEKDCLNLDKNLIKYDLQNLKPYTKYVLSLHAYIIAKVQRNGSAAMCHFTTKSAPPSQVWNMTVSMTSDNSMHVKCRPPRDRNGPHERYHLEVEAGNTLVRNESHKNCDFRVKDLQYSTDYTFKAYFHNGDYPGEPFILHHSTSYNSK

[8] = target: T1, cynomolgus CD45 on live cells (primary …); assay: flow cytometry on PBMCs; cyno EC50 against human EC50
[9] = target: T2, human CD45 on live cells (REH-1 cells, …); assay: flow cytometry on human PBMCs, overnight 37 C, AF488 anti-human IgG; remark: listed apart in the source
[10] = target: T1, cynomolgus CD45 on live cells (primary …); assay: flow cytometry on cynomolgus PBMCs, overnight 37 C, AF488 anti-human IgG
[11] = target: T3, purified human CD45 ectodomain (human …); assay: BLI (Octet Red96), IgG on anti-human Fc sensor, 50 nM CD45 ectodomain, 1:1 fit

B1: Antibody A (AbA) (antibody, V domains shown)
VH: EVQLLESGGGLVQPGGSLRLSCAASGFTFNNYWMTWVRQAPGKGLEWVSSISSSGGSIYYPDRVKGRFTISRDNSKNTLYLQMNSLRAEDTAVYYCARDERWAGAMDAWGQGTTVTVSS
VL: DIQMTQSPSSLSASVGDRVTITCKASQNINKNLDWYQQKPGKAPKLLIYETNNLQTGVPSRFSGSGSGTDFTLTISSLQPEDFATYYCYQHNSRFTFGQGTKLEIK
notes: also called humanized clone AbA
Q: B1 was tested. Which “Fold Cyno vs Human (EC50)” value [1] did it give?
A: 2.2 fold

Q: And the “Fold Cyno v/s Human (EC50)” value [2]?
A: 1.8 fold

Q: What about the EC50 [3] of the same binder?
A: 0.58 nM

Q: And the EC50 [4]?
A: 0.78 nM

Q: And the EC50 [5]?
A: 1.25 nM

Q: And the EC50 [6]?
A: 1.37 nM

Q: And the Kd [7]?
A: 3.6 nM

Q: And the koff [7]?
A: 0.000181 s⁻¹

Q: What about the kon [7] of the same binder?
A: 50300 M⁻¹ s⁻¹

B2: AbA_D265C_LALA_H435A (antibody, human IgG1, kappa, L234A L235A, V domains shown)
VH: B1 VH
VL: DIQMTQSPSSLSASVGDRVTITCKASQNINKNLDWYQQKPGKAPKLLIYETNNLQTGVPSRFSGSGSGTDFTLTISSLQPEDFATYYCYQHNSRFTFGQGTKLEIKR
notes: also called Fc variant of AbA
Q: How did the “Cyno/Human Ratio (EC50)” value [8] turn out when B2 was run?
A: 1.49 ratio

Q: What about the EC50 [9] of the same binder?
A: 2.3 nM

Q: And the EC50 [10]?
A: 3.4 nM

B3: Antibody B (AbB) (antibody, IgG1, V domains shown)
VH: EVQLVESGGGLVQPGGSLRLSCAASGFTFTNFWMAWIRQAPGKGLEWVASISSSGGSIYYPDSVKDRFTISRDNSKNTLYLQMNSLRAEDTAVYYCVKFHHYSGGGDAWGQGTLVTVSS
VL: DIQMTQSPSSLSASVGDRVTITCKASQNINKYLDWYQQKPGKAPKLLIHYTNNLHTGIPSRFSGSGSGTDYTLTISSLQPEDFATYYCLQHSSRWTFGGGTKVEIK
notes: also called humanized clone AbB
Q: With B3 as the binder, how does the “Fold Cyno vs Human (EC50)” value [1] read?
A: 1.7 fold

Q: What about the “Fold Cyno v/s Human (EC50)” value [2] of the same binder?
A: 1.9 fold

Q: And the EC50 [3]?
A: 0.67 nM

Q: What about the EC50 [4] of the same binder?
A: 0.76 nM

Q: What about the EC50 [5] of the same binder?
A: 1.12 nM

Q: What about the EC50 [6] of the same binder?
A: 1.42 nM

Q: What about the Kd [7] of the same binder?
A: 5.46 nM

Q: What about the koff [7] of the same binder?
A: 0.000239 s⁻¹

Q: And the kon [7]?
A: 43800 M⁻¹ s⁻¹

B4: Antibody 4 (Ab4) (antibody, V domains shown)
VH: EVQLVESGGGLVQPGGSLRLSCAASGFTFEAYSMNWVRQAPGKGLEWVSYISLSGATIHYADSVKGRFTISRDNAKNSLYLQMNSLRAEDTAVYYCARGGQYYYTSSDYGEVAFDIWGQGTMVTVSS
VL: DIVMTQSPLSLPVTPGEPASISCRSSQSLVSNGYNYLDWYLQKPGQSPQLLIYFGSSRASGVPDRFSGSGSGTDFTLKISRVEAEDVGVYYCMQRRRTPWSFGGGTKVEIK
Q: Which results are given for B4?
A: Kd [11]: 0.0139 nM; koff [11]: 3.28e-06 s⁻¹; kon [11]: 236000 M⁻¹ s⁻¹

B5: Antibody 3 (Ab3) (antibody, V domains shown)
VH: B4 VH with E1Q, Q13K, E30G, A31G, L53I, H59T, T105D
VL: DIVMTQSPLSLPVTPGEPASISCRSSQSLVSNGYNYLDWYLQKPGQSPQLLIYFGSSRASGVPDRFSGSGSGTDFTLKISRVEAEDVGVYYCMQRRRTPPFTFGGGTKVEIK
Q: What does the source list for B5?
A: Kd [11]: 0.866 nM; koff [11]: 0.000225 s⁻¹; kon [11]: 260000 M⁻¹ s⁻¹

B6: Antibody 5 (Ab5) (antibody, V domains shown)
VH: B4 VH
VL: B4 VL with N32S
notes: Human IgG: Ab4 with the Asn to Ser substitution in CDR-L1
Q: With B6 as the binder, how does the Kd [11] read?
A: 0.144 nM

Q: And the koff [11]?
A: 3.36e-05 s⁻¹

Q: And the kon [11]?
A: 233000 M⁻¹ s⁻¹

B7: Antibody 2 (Ab2) (antibody, V domains shown)
VH: B4 VH with T105D
VL: B4 VL
Q: For B7, which Kd [11] is on record?
A: 0.115 nM

Q: What about the koff [11] of the same binder?
A: 2.8e-05 s⁻¹

Q: And the kon [11]?
A: 245000 M⁻¹ s⁻¹

B8: Antibody 6 (Ab6) (antibody, V domains shown)
VH: B4 VH with M122L
VL: B4 VL with M4L, N32S
Q: What does the source list for B8?
A: Kd [11]: 0.0716 nM; koff [11]: 1.73e-05 s⁻¹; kon [11]: 242000 M⁻¹ s⁻¹

B9: Antibody 7 (Ab7) (antibody, V domains shown)
VH: B4 VH with E1Q, Q13K, E30G, A31G, L53I, H59T, T105D
VL: B5 VL with N32S
notes: Human IgG: Ab3 with the Asn to Ser substitution in CDR-L1
Q: With B9 as the binder, how does the Kd [11] read?
A: 2.33 nM

Q: What about the koff [11] of the same binder?
A: 0.000615 s⁻¹

Q: What about the kon [11] of the same binder?
A: 264000 M⁻¹ s⁻¹
